This data set deals with apRAD51C-CTD-1 WT (Alvinella pompejana). Nature of the data set: fluorescence polarization. Conditions: FP: 20 mM HEPES pH 8, 80 mM NaCl, 2.5 mM ATP, 2.5 mM MgCl2, 1 mM DTT, 0.1 mg/mL BSA, 10 nM DNA, 37 C 20 min, EMSA: 20 mM Tris pH 8.0, 150 mM KCl, 4 C 15 min. For orientation: Polarisation of emitted light reports the rotation of a fluorescent probe.

pKd: −log10 of the molar value.

With TTTTTTTTTTTTTTTTTTTT [poly-20dT], the negative-log Kd (pKd) (commonly the Kd on a negative log10 scale, so that one unit is a factor of ten) was 5.90.

Values taken from publication PMC10366140.
